Test results published in the supplement of paper PMC10126150.
± gives the standard deviation of the averaged measurements.

Tested on: ATP
Assay: switch fluorescence ratio, 500 uM ATP over buffer (Cy3 cluster intensity, sum of 5 cycles each) (fold (ratio)); higher = stronger signal-on switching upon ATP binding; sequences stand for … in TCGTCGGCAGCGTCAGATGTGTATAAGAGACAGTTTTTTTTTTTTTTTTTTTTTTTTT…TC
Details: aptamer strand: ATP DNA aptamer (quencher-CACCTGGGGGAGTATTGCGGAGGAAGG + anchor), 100 nM annealed; ATP concentration: 500 uM
Outline: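 Switching-strand clusters labelled with Cy3 on a modified Illumina MiSeq flow-cell were annealed to 100 nM quencher-labelled ATP aptamer, imaged in selection buffer, and re-imaged after 15 min with 500 uM ATP at 22 °C. This was done over five cycles with NaOH stripping and re-annealing in between. The fluorescence ratio is summed target-cycle over summed buffer-cycle Cy3 intensity per cluster, averaged per switch-domain sequence, excluding clusters outside 100-1000 RFU.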
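Also: ATP exposure 15 min at 22 °C before imaging.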

| Sequence | switch fluorescence ratio |
| --- | --- |
| GCGAGGAATC | 1.0365 ± 0.00015 |
| GCGAGGGATT | 1.02 ± 0.032 |
| GCGAGGGGGG | 1.02 ± 0.034 |
| GCGAGTATGC | 1.03 ± 0.02 |
| GCGAGTGTCC | 0.99 ± 0.019 |
| GCGAGTGTGT | 0.984 ± 0.029 |
| GCGAGTTATG | 1.03 ± 0.031 |
| GCGATATAGT | 1.03 ± 0.074 |
| GCGATATATG | 0.9775 ± 0.0032 |
| GCGATCAGGT | 1.02 ± 0.017 |
| GCGATCCAAA | 1 ± 0.037 |
| GCGATCCTGT | 1.02 ± 0.015 |
| GCGATGCCTG | 0.973 ± 0.071 |
| GCGATGGATA | 0.96 ± 0.056 |
| GCGATGTGAC | 1.22 ± 0.059 |
| GCGATGTGGT | 1.01 ± 0.012 |
| GCGATTGAGG | 0.9891 ± 0.005 |
| GCGATTGGGT | 1.01 ± 0.043 |
| GCGCAGTCGG | 1.034 ± 0.0048 |
| GCGCATTGGT | 1.06 ± 0.068 |
| GCGCGCCGGG | 1.01 ± 0.027 |
| GCGCGCTAAG | 0.977 ± 0.035 |
| GCGCTAAGTT | 0.984 ± 0.015 |

| Sequence | switch fluorescence ratio |
| --- | --- |
| GCGCTACTAG | 1.02 ± 0.021 |
| GCGCTAGGCT | 1.01 ± 0.08 |
| GCGCTATCTT | 1.06 ± 0.041 |
| GCGCTCGTCG | 1.07 ± 0.012 |
| GCGCTGACGT | 0.9932 ± 0.0052 |
| GCGCTTAGGT | 0.983 ± 0.077 |
| GCGCTTGAAT | 0.982 ± 0.018 |
| GCGCTTTTGG | 0.986 ± 0.048 |
| GCGGAAGACG | 1.35 ± 0.6 |
| GCGGACACGC | 1.02 ± 0.014 |
| GCGGAGCGTA | 1.06 ± 0.13 |
| GCGGAGTATT | 1.02 ± 0.012 |
| GCGGATGGTG | 1.07 ± 0.08 |
| GCGGATGTCT | 1 ± 0.017 |
| GCGGCATAAT | 1.02 ± 0.026 |
| GCGGCGTCAA | 1.064 ± 0.0067 |
| GCGGCTAGTC | 1.012 ± 0.0064 |
| GCGGCTGAAA | 1 ± 0.022 |
| GCGGCTGTGG | 0.9861 ± 0.008 |
| GCGGCTGTTA | 1.01 ± 0.013 |
| GCGGCTTCGG | 1.04 ± 0.032 |
| GCGGCTTGTG | 0.9988 ± 0.0089 |
| GCGGGAAACT | 1.05 ± 0.032 |

| Sequence | switch fluorescence ratio |
| --- | --- |
| GCGGGAATGG | 1.02 ± 0.0037 |
| GCGGGAGATA | 1.01 ± 0.037 |
| GCGGGCAATG | 1.052 ± 0.0089 |
| GCGGGCAGGC | 0.99818 ± 0.00079 |
| GCGGGCGGCG | 0.974 ± 0.03 |
| GCGGGGA | 0.998 ± 0.015 |
| GCGGGGACTT | 0.984 ± 0.038 |
| GCGGGGCAAG | 1.06 ± 0.11 |
| GCGGGGGGGC | 1.01 ± 0.017 |
| GCGGGGGGTA | 1.01 ± 0.03 |
| GCGGGGGGTC | 1.06 ± 0.091 |
| GCGGGGGGTG | 1.01 ± 0.03 |
| GCGGGGGTCC | 1.17 ± 0.31 |
| GCGGGGTTGG | 1.01 ± 0.035 |
| GCGGGGTTTG | 1.01 ± 0.015 |
| GCGGGTATGT | 1.04 ± 0.023 |
| GCGGGTCACC | 0.992 ± 0.01 |
| GCGGGTCTGC | 0.963 ± 0.028 |
| GCGGTATATG | 1.01 ± 0.027 |
| GCGGTCCACG | 1.02 ± 0.022 |
| GCGGTGGATG | 1.03 ± 0.012 |
| GCGGTGGGGT | 1.01 ± 0.018 |
| GCGGTTTTGT | 0.998 ± 0.029 |

| Sequence | switch fluorescence ratio |
| --- | --- |
| GCGTAACTTC | 1.01 ± 0.044 |
| GCGTAAGGCC | 1.14 ± 0.21 |
| GCGTAAGTTC | 0.981 ± 0.011 |
| GCGTAATCTT | 0.988 ± 0.035 |
| GCGTATGGAC | 1.01 ± 0.02 |
| GCGTATTATT | 1.001 ± 0.0043 |
| GCGTATTGCT | 0.993 ± 0.016 |
| GCGTCAACTG | 1.04 ± 0.023 |
| GCGTCAAGAT | 1.04 ± 0.042 |
| GCGTCAAGTG | 0.988 ± 0.026 |
| GCGTCGGGCA | 0.997 ± 0.027 |
| GCGTCGGGTG | 1.019 ± 0.008 |
| GCGTCTAAGG | 0.981 ± 0.021 |
| GCGTCTGCGC | 0.943 ± 0.085 |
| GCGTGAGGCG | 1.01 ± 0.02 |
| GCGTGAGGGG | 1.03 ± 0.05 |
| GCGTGATGCC | 1.03 ± 0.075 |
| GCGTGCCTCG | 1.02 ± 0.036 |
| GCGTGGTCAG | 0.97027 ± 0.00034 |
| GCGTGTGAGC | 1 ± 0.012 |
| GCGTTATATT | 1 ± 0.018 |
| GCGTTATGTG | 1.017 ± 0.01 |
| GCGTTATTTT | 1.012 ± 0.0076 |

| Sequence | switch fluorescence ratio |
| --- | --- |
| GCGTTCCGTA | 1.02 ± 0.039 |
| GCGTTGGGAC | 1.042 ± 0.0036 |
| GCGTTGTCTG | 0.982 ± 0.068 |
| GCGTTGTGGA | 1.04 ± 0.02 |
| GCGTTGTTCG | 0.99 ± 0.044 |
| GCGTTTAAGA | 1.04 ± 0.021 |
| GCGTTTAATG | 0.977 ± 0.047 |
| GCGTTTAATT | 1.02 ± 0.03 |
| GCGTTTGTGC | 1.007 ± 0.01 |
| GCGTTTTATT | 0.976 ± 0.017 |
| GCGTTTTGGG | 0.979 ± 0.041 |
| GCTAAAACAG | 0.985 ± 0.026 |
| GCTAAAAGCT | 1.02 ± 0.011 |
| GCTAAAATAG | 1.11 ± 0.15 |
| GCTAAAGAAA | 0.974 ± 0.028 |
| GCTAACATTT | 0.974 ± 0.029 |
| GCTAACCGTA | 1.04 ± 0.023 |
| GCTAATTTTT | 0.996 ± 0.018 |
| GCTACAGGGG | 1.18 ± 0.25 |
| GCTACCATAT | 1.07 ± 0.015 |
| GCTACGATGT | 1.01 ± 0.049 |
| GCTACGGGGG | 1.02 ± 0.037 |
| GCTACGTGTT | 1.053 ± 0.007 |

| Sequence | switch fluorescence ratio |
| --- | --- |
| GCTACTGGCA | 1.003 ± 0.0077 |
| GCTACTTAAA | 1.03 ± 0.025 |
| GCTAGGCGGA | 1.0381 ± 0.0006 |
| GCTAGGGGAA | 0.985 ± 0.031 |
| GCTAGGGGTA | 0.987 ± 0.012 |
| GCTAGTATAA | 0.987 ± 0.027 |
| GCTAGTCTGA | 0.9954 ± 0.0019 |
| GCTATAGAGG | 0.9846 ± 0.0072 |
| GCTATAGCGT | 0.9958 ± 0.0063 |
| GCTATTCGAA | 1.01 ± 0.061 |
| GCTATTCGAC | 1.16 ± 0.022 |
| GCTATTGAAA | 0.9922 ± 0.0018 |
| GCTATTGGAT | 1.01 ± 0.02 |
| GCTATTTACT | 1.06 ± 0.076 |
| GCTCAAGGAG | 0.9951 ± 0.0066 |
| GCTCACAGAA | 1.02 ± 0.019 |
| GCTCATGAAT | 1 ± 0.023 |
| GCTCGGGGGG | 0.987 ± 0.031 |
| GCTCGGGGTA | 1.02 ± 0.013 |
| GCTCGTAGTG | 1 ± 0.047 |
| GCTCGTAGTT | 1.01 ± 0.046 |
| GCTCTAATTG | 1.008 ± 0.0058 |
| GCTCTACTGG | 1.024 ± 0.0021 |

| Sequence | switch fluorescence ratio |
| --- | --- |
| GCTCTAGATC | 1.35 ± 0.07 |
| GCTCTAGTTT | 1.02 ± 0.027 |
| GCTCTATGGT | 1.006 ± 0.0078 |
| GCTCTATGTG | 1.01 ± 0.018 |
| GCTCTGACGG | 1.054 ± 0.0086 |
| GCTCTGGGGG | 1.03 ± 0.039 |
| GCTCTTCCCG | 1.319 ± 0.011 |
| GCTCTTTGCT | 0.988 ± 0.044 |
| GCTGAAAGGA | 0.999 ± 0.061 |
| GCTGACAGCG | 0.959 ± 0.017 |
| GCTGAGAATG | 0.999 ± 0.021 |
| GCTGAGTAAC | 0.99 ± 0.0017 |
| GCTGATGATA | 0.967 ± 0.026 |
| GCTGATGTTC | 1.0082 ± 0.001 |
| GCTGCATATA | 1.066 ± 0.0095 |
| GCTGCGGTTT | 0.993 ± 0.013 |
| GCTGCTGGCC | 0.999 ± 0.044 |
| GCTGCTGTTG | 1.06 ± 0.049 |
| GCTGGATTGC | 0.916 ± 0.048 |
